The target in this assay is Sulfolobus solfataricus heat shock 20.1 (Sulfolobus solfataricus P2). Nature of the assay: SEC.

By stoichiometry N is commonly meant the number of molecules, sites or subunits per partner or assembly. Substance “Sulfolobus solfataricus heat shock 20.1 (natural protein)” gave a stoichiometry N of 24 subunits.
